Patent US20110135634A1, “METHODS OF INHIBITING INFECTION BY DIVERSE SUBTYPES OF DRUG-RESISTANT HIV-1” (priority 2007, published 2011)

System: primary R5 HIV-1 isolates
Assay: Whole virus replication (neutralization) assay
Format: cell-based
Settings: a variety of primary R5 strains (FIG. 1)
Experimental: Humanized PRO140 is potently antiviral. […] The data reflect the median values from 8 or more independent assays. The genetic subtypes of the viruses are indicated in parentheses.
Stimulated PBMCs are seeded into wells of 96-well flat bottom plates at a density of 1.4×10^5 cells/well. Virus is diluted to 2,000 TCID50/ml and mixed with serial 0.5 log10 dilutions of compound for 1 h at 37° C. prior to addition to the cell plates. The final amount of virus added per well is 100 TCID50. The final DMSO concentration in the assay is always 0.5% whenever small molecule inhibitors are being tested. Plates are incubated at 37° C. for 5 days, at which time an aliquot of supernatant is removed for p24 antigen ELISA.
The percent inhibition is derived as follows [1−(p24 levels in the presence of drug/p24 levels in the absence of drug)]×100.

B1: PRO 140: humanized IgG4,κ anti-CCR5 mAb being developed for HIV-1 therapy (antibody, chains of the INN, looked up, V domains shown)
VH: EVQLVESGGGLVKPGGSLRLSCAASGYTFSNYWIGWVRQAPGKGLEWIGDIYPGGNYIRNNEKFKDKTTLSADTSKNTAYLQMNSLKTEDTAVYYCGSSFGSNYVFAWFTYWGQGTLVTVSS
VL: DIVMTQSPLSLPVTPGEPASISCRSSQRLLSSYGHTYLHWYLQKPGQSPQLLIYEVSNRFSGVPDRFSGSGSGTDFTLKISRVEAEDVGVYYCSQSTHVPLTFGQGTKVEIK
IC90: 3 to 4 µg/mL
